Source: patent US20140186823

Columns and labels:
[1] = biological target: MS-(B1-L88N)8 L88N (Mycobacterium smegmatis) (UniProt A0QR29); conditions: four 5' 2'-O-methyl-uracil on SEQ 19; 3' Cholesteryl-TEG on SEQ 20; mean S.D. of current levels; helicase translocation, +140 mV; unit assumed
[2] = biological target: MspA NNN-RRK pore MS-(B1)8 (Mycobacterium smegmatis) (UniProt A0QR29); conditions: four 5' 2'-O-methyl-uracil on SEQ 19; 3' Cholesteryl-TEG on SEQ 20; mean S.D. of current levels; helicase translocation, +140 mV; unit assumed

**Q.** “NNNNTTTTTTTTTTTTTTTTTTTTTTTTTTTTTTTTTTTTTTTTTTTTTTTTTTGGTTGTTTCTGTTGGTGCTGATATTGCTTTTGATGCCGACCCTAAATTTTTTGCCTGTTTGGTTCGCTTTGAGTCTTCTTCGGTTCCGACTACCCTCCCGACTGCCTATGATGTTTATCCTTTGAATGGTCGCCATGATGGTGGTTATTATACCGTCAAGGACTGTGTGACTATTGACGTCCTTCCCCGTACGCCGGGCAATAACGTTTATGTTGGTTTCATGGTTTGGTCTAACTTTACCGCTACTAAATGCCGCGGATTGGTTTCGCTGAATCAGGTTATTAAAGAGATTATTTGTCTCCAGCCACTTAAGTGAGGTGATTTATGTTTGGTGCTATTGCTGGCGGTATTGCTTCTGCTCTTGCTGGTGGCGCCATGTCTAAATTGTTTGGAGGCGGTC / GCAATATCAGCACCAACAGAAACAACCTTTTTTTTTTTTTTTTTTTTTTTTTTTTTT” was tested. Which activity [1] did it give?
**A.** The activity was 1.79 pA.

**Q.** And the activity [2]?
**A.** The activity was 2.3 pA.
